Laboratory results: patent US20220143178A1

What was measured:
[1] = target: Pertuzumab-specific HER2 antigen (Rhinogen®); experiment: SPR, Biacore T200; IgG captured by anti-human Fc on CM5 chip, antigen flowed over
[2] = target: Pertuzumab-specific HER2 antigen (Rhinogen®); experiment: ELISA; antigen coated at 2 µg/ml, HRP anti-human light chain detection

- Kd [1]: 2.81 nM
- EC50 [2]: 0.0153 µg/mL
Substance: Pertuzumab (antibody)
